# Measurements: patent US20220144956A1 (published 2022)
# Where a chain is given by its changes, count along the chain named.
# B1: H1.27 L1 XENP34483 (antibody, V domains shown)
# VH: QLQVQESGPGLVKPSETLSLTCTVSGGSISNSYYSWGWIRQPPGKGLEWIGSFYYGEKTYYNPSLKSRATISIDTSKSQFSLKLSSVTAADTAVYYCPRGPTMIRGVIDSWGQGTLVTVSS
# VL: EIVLTQSPATLSLSPGERATLSCRASQSVRSYLAWYQQKPGQAPRLLIYDASNRATGIPARFSGSGSGTDFTLTISSLEPEDFAVYYCQQRSNWPPTFGQGTKVEIK
# B2: H1.31 L1 XENP34487 (antibody, V domains shown)
# VH: B1 VH with Y34F, W36I
# VL: B1 VL
# B3: H1.28 L1 XENP34484 (antibody, V domains shown)
# VH: B1 VH with Y34F, S35A
# VL: B1 VL
# B4: H1.13 L1 XENP34469 (antibody, V domains shown)
# VH: B1 VH with N31G, Y34F
# VL: B1 VL
# B5: H1.8 L1 XENP34464 (antibody, V domains shown)
# VH: B1 VH with G27Y, Y34F
# VL: B1 VL
# B6: H1.23 L1 XENP34479 (antibody, V domains shown)
# VH: B1 VH with Y33G, Y34F
# VL: B1 VL
# B7: H1.26 L1 XENP34482 (antibody, V domains shown)
# VH: B1 VH with Y34S
# VL: B1 VL
# B8: H1.30 L1 XENP34486 (antibody, V domains shown)
# VH: B1 VH with Y34F, S35Y
# VL: B1 VL
# B9: H1.12 L1 XENP34468 (antibody, V domains shown)
# VH: B1 VH with N31E, Y34F
# VL: B1 VL
# B10: H1.21 L1 XENP34477 (antibody, V domains shown)
# VH: B1 VH with Y33A, Y34F
# VL: B1 VL
# B11: H1.7 L1 XENP34463 (antibody, V domains shown)
# VH: B1 VH with T23A, Y34F
# VL: B1 VL
# B12: H1.38 L1 XENP34494 (antibody, V domains shown)
# VH: B1 VH with Y34F, P42A
# VL: B1 VL
# B13: H1.22 L1 XENP34478 (antibody, V domains shown)
# VH: B1 VH with Y33D, Y34F
# VL: B1 VL
# B14: H1.18 L1 XENP34474 (antibody, V domains shown)
# VH: B1 VH with S32A, Y34F
# VL: B1 VL
# B15: H1.6 L1 XENP34462 (antibody, V domains shown)
# VH: B1 VH with E16Q, Y34F
# VL: B1 VL
# B16: H1.33 L1 XENP34489 (antibody, V domains shown)
# VH: B1 VH with Y34F, G37A
# VL: B1 VL
# B17: H1.5 L1 XENP34461 (antibody, V domains shown)
# VH: B1 VH with P9S, Y34F
# VL: B1 VL
# B18: H1.20 L1 XENP34476 (antibody, V domains shown)
# VH: B1 VH with S32T, Y34F
# VL: B1 VL
# B19: H1.37 L1 XENP34493 (antibody, V domains shown)
# VH: B1 VH with Y34F, I39V
# VL: B1 VL
# B20: H1.9 L1 XENP34465 (antibody, V domains shown)
# VH: B1 VH with I29F, Y34F
# VL: B1 VL
# B21: H1.32 L1 XENP34488 (antibody, V domains shown)
# VH: B1 VH with Y34F, W36M
# VL: B1 VL
# B22: H1.17 L1 XENP34473 (antibody, V domains shown)
# VH: B1 VH with N31R, Y34F
# VL: B1 VL
# B23: H1.11 L1 XENP34467 (antibody, V domains shown)
# VH: B1 VH with N31D, Y34F
# VL: B1 VL
# B24: H1.14 L1 XENP34470 (antibody, V domains shown)
# VH: B1 VH with N31S, Y34F
# VL: B1 VL
# B25: H1.16 L1 XENP34472 (antibody, V domains shown)
# VH: B1 VH with N31Q, Y34F
# VL: B1 VL
# B26: H1.2 L1 XENP34458 (antibody, V domains shown)
# VH: B1 VH with L2V, Y34F
# VL: B1 VL
# B27: H1.3 L1 XENP34459 (antibody, V domains shown)
# VH: B1 VH with L2V, V4L, Y34F
# VL: B1 VL
# B28: H1.25 L1 XENP34481 (antibody, V domains shown)
# VH: B1 VH with Y34H
# VL: B1 VL
# B29: H1.10 L1 XENP34466 (antibody, V domains shown)
# VH: B1 VH with I29V, Y34F
# VL: B1 VL
# B30: H1.34 L1 XENP34490 (antibody, V domains shown)
# VH: B1 VH with Y34F, G37H
# VL: B1 VL
# B31: H1 L1 WT XENP28298 (antibody, V domains shown)
# VH: B1 VH with Y34F
# VL: B1 VL
# B32: H1.24 L1 XENP34480 (antibody, V domains shown)
# VH: B1 VH with Y33H, Y34F
# VL: B1 VL
# B33: H1.19 L1 XENP34475 (antibody, V domains shown)
# VH: B1 VH with S32G, Y34F
# VL: B1 VL
# B34: H1.36 L1 XENP34492 (antibody, V domains shown)
# VH: B1 VH with Y34F, G37S
# VL: B1 VL
# B35: H1.4 L1 XENP34460 (antibody, V domains shown)
# VH: B1 VH with V4L, Y34F
# VL: B1 VL
# B36: H1.29 L1 XENP34485 (antibody, V domains shown)
# VH: B1 VH with Y34F, S35T
# VL: B1 VL
# B37: H1.15 L1 XENP34471 (antibody, V domains shown)
# VH: B1 VH with N31T, Y34F
# VL: B1 VL
# B38: H1.1 L1 XENP28299 (antibody, V domains shown)
# VH: B1 VH with Y34F, M103V
# VL: B1 VL
# B39: H1 L1.12 XENP34575 (antibody, V domains shown)
# VH: B1 VH with Y34F
# VL: B1 VL with S31T
# B40: H1 L1.32 XENP34595 (antibody, V domains shown)
# VH: B1 VH with Y34F
# VL: B1 VL with E79Q
# B41: H1 L1.9 XENP34572 (antibody, V domains shown)
# VH: B1 VH with Y34F
# VL: B1 VL with R30Q
# B42: H1 L1.40 XENP34603 (antibody, V domains shown)
# VH: B1 VH with Y34F
# VL: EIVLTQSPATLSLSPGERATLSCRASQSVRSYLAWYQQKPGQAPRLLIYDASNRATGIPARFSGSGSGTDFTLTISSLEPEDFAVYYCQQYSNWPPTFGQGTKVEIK
# B43: H1 L1.22 XENP34585 (antibody, V domains shown)
# VH: B1 VH with Y34F
# VL: B1 VL with D50S
# B44: H1 L1.35 XENP34598 (antibody, V domains shown)
# VH: B1 VH with Y34F
# VL: B1 VL with V85T
# B45: H1 L1.44 XENP34607 (antibody, V domains shown)
# VH: B1 VH with Y34F
# VL: B1 VL with S92T
# B46: H1 L1.42 XENP34605 (antibody, V domains shown)
# VH: B1 VH with Y34F
# VL: B1 VL with S92G
# B47: H1 L1.36 XENP34599 (antibody, V domains shown)
# VH: B1 VH with Y34F
# VL: B1 VL with R91E
# Molecular target: T1, human TGFßRII (antigen of the Octet experiments) (human, UniProt P37173 23-166)
# T1 sequence (P37173 23-166): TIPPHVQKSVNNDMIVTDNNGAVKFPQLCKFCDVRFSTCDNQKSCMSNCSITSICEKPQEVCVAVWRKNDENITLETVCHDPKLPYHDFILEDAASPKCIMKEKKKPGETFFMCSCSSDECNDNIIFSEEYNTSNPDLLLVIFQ
# Assay: BLI (Octet)
row,Kd,Binder
1,0.809 nM,B1
2,7.28 nM,B2
3,3.6 nM,B3
4,1 nM,B4
5,0.238 nM,B5
6,0.767 nM,B6
7,0.273 nM,B7
8,5.9 nM,B8
9,0.374 nM,B9
10,0.455 nM,B10
11,0.316 nM,B11
12,0.325 nM,B12
13,1.97 nM,B13
14,0.205 nM,B14
15,0.0242 nM,B15
16,0.414 nM,B16
17,0.245 nM,B17
18,0.559 nM,B18
19,0.391 nM,B19

row,Kd,Binder
1,0.496 nM,B20
2,2.47 nM,B21
3,0.292 nM,B22
4,0.419 nM,B23
5,0.181 nM,B24
6,0.407 nM,B25
7,0.001 nM,B26
8,0.001 nM,B27
9,0.415 nM,B28
10,0.182 nM,B29
11,5.73 nM,B30
12,0.001 nM,B31
13,0.199 nM,B32
14,0.836 nM,B33
15,1.76 nM,B34
16,0.128 nM,B35
17,1.79 nM,B36
18,0.0115 nM,B37
19,0.325 nM,B38

# Molecular target: T1, human TGFßRII (antigen of the Octet …)
# Assay: BLI (Octet)
# Remark: another data set of the same source
row,Kd,Binder
1,0.539 nM,B39
2,1 nM,B40
3,16.4 nM,B41
4,23.1 nM,B42
5,0.782 nM,B43
6,0.344 nM,B44
7,2.03 nM,B45
8,2.94 nM,B46
9,59.3 nM,B47
